Key:
[1] = molecular target: Rel A homodimer (UniProt Q04206 Q04206:1-551); assay: EMSA; conditions: chain copies: 2 (stated); label: 32P
[2] = molecular target: T1, NFKB1 (p50) homodimer (UniProt P19838 P19838:1-433); assay: EMSA; labeled oligonucleotides bound; conditions: chain copies: 2 (stated); label: 32P
[3] = molecular target: T2, NFKB2 (p52) homodimer (UniProt Q00653 Q00653:1-454); assay: EMSA; labeled oligonucleotides bound; conditions: chain copies: 2 (stated); label: 32P
T2 sequence: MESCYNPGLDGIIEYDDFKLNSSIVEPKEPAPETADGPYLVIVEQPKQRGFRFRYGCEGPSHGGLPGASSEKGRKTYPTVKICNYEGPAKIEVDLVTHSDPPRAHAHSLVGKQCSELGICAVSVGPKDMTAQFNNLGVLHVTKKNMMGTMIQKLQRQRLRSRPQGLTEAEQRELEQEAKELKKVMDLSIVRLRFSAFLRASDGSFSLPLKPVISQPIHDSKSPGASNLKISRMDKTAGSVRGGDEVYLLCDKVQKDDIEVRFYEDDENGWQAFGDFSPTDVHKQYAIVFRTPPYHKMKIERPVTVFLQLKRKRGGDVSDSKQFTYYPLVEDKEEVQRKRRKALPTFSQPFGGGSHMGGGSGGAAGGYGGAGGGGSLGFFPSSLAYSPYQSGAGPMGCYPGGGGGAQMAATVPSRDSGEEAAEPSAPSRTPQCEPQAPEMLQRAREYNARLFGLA

[4] = molecular target: T1, NFKB1 (p50) homodimer; assay: EMSA; methylation interference shows contacts to GGGG on both strands; conditions: chain copies: 2 (stated); label: 32P
[5] = molecular target: T2, NFKB2 (p52) homodimer; assay: as above; conditions: chain copies: 2 (stated); label: 32P
[6] = molecular target: T1, NFKB1 (p50) homodimer; assay: EMSA; conditions: chain copies: 2 (stated)
[7] = molecular target: T2, NFKB2 (p52) homodimer; assay: EMSA; conditions: chain copies: 2 (stated)

T1 sequence (P19838 1-433, one chain of several): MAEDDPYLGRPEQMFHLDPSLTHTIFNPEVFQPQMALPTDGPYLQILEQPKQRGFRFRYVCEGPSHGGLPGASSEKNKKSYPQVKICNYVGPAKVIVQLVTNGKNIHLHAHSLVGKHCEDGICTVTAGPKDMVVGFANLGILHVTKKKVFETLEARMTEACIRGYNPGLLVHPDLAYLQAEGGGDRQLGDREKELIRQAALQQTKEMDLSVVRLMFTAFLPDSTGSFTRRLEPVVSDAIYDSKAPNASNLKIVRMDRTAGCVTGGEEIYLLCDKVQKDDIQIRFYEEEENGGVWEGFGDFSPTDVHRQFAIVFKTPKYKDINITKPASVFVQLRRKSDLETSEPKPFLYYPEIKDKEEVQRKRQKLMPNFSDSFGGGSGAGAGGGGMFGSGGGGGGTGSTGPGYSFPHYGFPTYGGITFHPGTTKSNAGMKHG
Rel A homodimer, sequence (Q04206 whole entry, one chain of several): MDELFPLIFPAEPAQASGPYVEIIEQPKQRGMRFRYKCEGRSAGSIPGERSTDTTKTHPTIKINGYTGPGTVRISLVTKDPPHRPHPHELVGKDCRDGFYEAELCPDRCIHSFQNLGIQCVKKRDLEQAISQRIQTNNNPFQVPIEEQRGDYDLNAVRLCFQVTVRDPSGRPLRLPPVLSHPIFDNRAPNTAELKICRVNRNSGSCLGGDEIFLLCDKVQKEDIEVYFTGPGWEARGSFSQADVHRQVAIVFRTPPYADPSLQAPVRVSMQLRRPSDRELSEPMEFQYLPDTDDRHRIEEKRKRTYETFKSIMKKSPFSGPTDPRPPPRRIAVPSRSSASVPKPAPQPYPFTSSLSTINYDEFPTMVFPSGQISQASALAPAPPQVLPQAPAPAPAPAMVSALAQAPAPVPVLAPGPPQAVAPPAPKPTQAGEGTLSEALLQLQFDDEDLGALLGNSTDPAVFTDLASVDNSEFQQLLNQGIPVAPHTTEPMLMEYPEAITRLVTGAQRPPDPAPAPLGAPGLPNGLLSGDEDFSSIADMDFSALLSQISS

Row | Binder | binding result [1] | binding result [2] | binding result [3] | binding result [4] | binding result [5] | binding result [6] | binding result [7]
1 | P-selectin 4632-4672 (dsDNA) DNA 1: CATCTTCCATGGAAGGGGGTGACCCCTTGCCTCTTGGCAAC DNA 2: GTTGCCAAGAGGCAAGGGGTCACCCCCTTCCATGGAAGATG | no binding | binds | binds | – | – | – | –
2 | P-selectin 4642-4664 (dsDNA) DNA 1: GGAAGGGGGTGACCCCTTGCCTC DNA 2: GAGGCAAGGGGTCACCCCCTTCC | no binding | – | – | binds | binds | – | –
3 | P-selectin 4642-4664 ATAG mutant (dsDNA, [none]) DNA 1: GGAAGGGGGTGAATAGTTGCCTC DNA 2: GAGGCAACTATTCACCCCCTTCC | – | – | – | – | – | no binding | no binding
